Test results published in patent US10745461B2, “Pulsed introduction of low-dose RANKL as a therapy for diet-induced atherosclerosis” (Saint Louis University, priority 2015, dated 2020).
Entries after “also recorded” stand apart in the source; their conditions may differ.

Experiments:
[1] = test system: FoxP3 induction in OT-I CD8 T-cells by osteoclasts; test: TcREG (FoxP3) induction in OT-I CD8 T-cells co-cultured with bone marrow-derived osteoclasts; format: cell-based, mice; conditions: in culture, IL-17 10 ng/ml, increasing TNFα, DAPT 10 μM, Fc proteins added to T-cells prior to co-culture
Description: It was also determined that IL-17 and TNFα suppresses TcREG induction by osteoclasts. […] Another possibility is that loss of estrogen leads to increased production of the pro-inflammatory cytokines by T-cells that increase osteoclast activity. Without being limited to any method of operation, it is actually expected that in the presence of pro-inflammatory cytokines osteoclasts fail to induce TcREG. As estrogen depletion lead to greater number of osteoclasts because of a decreased Fas ligand expression, the loss of TcREG induction and increased osteoclast numbers would tip the balance towards increased osteoclast resorption and net bone loss. To test fir this possibility, OC-iTcREG induction was measured in the presence of IL-17 and TNFα. […] To understand the underlying mechanism of how TNFα affects osteoclasts' ability to induce TcREG, the signals provided by osteoclasts to induce FoxP3 in the CD8 T-cells were investigated along with if these signals were affected by […].
(§1) The most common and well-studied costimulatory signals on antigen-presenting cells are CD80 (B7.1) and CD86 (B7.2). As CD80/CD86 double knockout mice are commercially available, osteoclasts were generated from bone marrow precursors of these mice. The CD80/CD86 null osteoclasts (as well as wild-type controls) were then used to prime OT-I T-cells in the presence and absence of antigen. […] OT-I CD8 T-cells activated by CD80/CD86 null osteoclasts produced IL-6, IL-2 and IFN-γ to levels indistinguishable from wild-type mice (FIG. 4B). Having ruled out CD80/CD86 as the costimulatory molecules, an osteoclast microarray dataset was queried for other costimulatory molecules expressed by osteoclasts. Osteoclasts that express CD200 and c-Mer were found. The role of CD200 was chosen for testing based on the phenotype of CD200^−/− mice and the reported role for CD200 in regulating TcREG.
The most, well characterized regulator of FoxP3 in T-cells is TGFβ. It has been previously shown that neutralization or addition of TGFβ has no effect on the induction of TcREG. Therefore identification of other pathways that can regulate the FoxP3 promoter in T-cells was sought. A number of previous studies have identified that the Notch signaling contributes to FoxP3 induction. To test if Notch signaling is important for TcREG induction by osteoclasts, the γ-Secretase inhibitor DAPT was initially used. Ligation of the Notch receptor by its ligand leads to cleavage of Notch by γ-secretase. […] Next, we identified the Notch ligands expressed in osteoclasts using reverse-transcription followed by PCR. […] Of the four, the osteoclast-precursors (bone marrow cells treated with M-CSF but not RANKL) express all of the ligands except DLL4 (FIG. 5C). To assess the role of DLL4 in TcREG (soluble) DLL4-Fc was added to OT-I CD8 T-cells prior to co-culturing with osteoclasts. […] To assess the role of DLL4 in vivo the induction experiments as described in FIG. 1 were performed: GFP negative (polyclonal) CD8 T-cells were purified by cell sorting and transferred into OT-II Rag^−/− mice. Two hours prior to RANKL treatment, DLL4-Fc or a control IgG1-Fc, were injected intravenously into the recipient mice, As described for FIG. 1, RANKL (0.125 mg/kg) was then administered on two consecutive days.
DLL-4 expression is repressed in the presence of […] and IL-17 but can be de-repressed by RANKL. […]

CD200 = CD200 expression in mature osteoclasts by qRT-PCR; format: cell-based, mouse; conditions: TNFα 20 ng/ml or IL-17A 10 ng/ml
Excerpt: as §1
(§2) Osteoclasts seeded on day 4 at 1.5×10^6 cells/ml were used in all experiments. RNA was isolated at time point described in Figure legends. 10 to 50 ng of RNA was used for first-strand cDNA synthesis in 50 μL reaction per kit instructions (Superscript III cDNA synthesis system; Invitrogen). In all cases 10% of the cDNA product was used in a 50 μL PCR reaction that contained 10 μM each forward and reverse primers. For quantitative PCR (qPCR) SYBR green system (Invitrogen) was used. Otherwise, cDNA was amplified (25 cycles) and the products resolved on 1.2% agarose gel and visualized by ethidium bromide staining.

DLL4 = DLL4 expression in mature osteoclasts by qRT-PCR; format: cell-based, mouse; conditions: overnight in 20 ng/ml TNFα or 10 ng/ml IL-17
Excerpt: DLL-4 expression is repressed in the presence of […] and IL-17 but can be de-repressed by RANKL. Having identified that DLL4 was required for osteoclasts to induce Foxp3 expression in CD8+ T cells we next tested if DLL-4 expression was affected by pro-inflammatory cytokines. […] As RANKL induced DLL4 in osteoclast precursors, it was hypothesized that adding additional RANKL may overcome the repression of DLL4 by TNFα. To assess the reversibility of DLL4 expression, mature osteoclasts were cultured overnight in 50 ng/ml RANKL and 20 ng/ml […], and then additional RANKL was added to the culture media (while maintaining 20 ng/ml TNFα) as shown in FIG. 5E. Indeed, addition of RANKL overcomes (within 24 hours) the repression of DLL4 by TNFα as assessed by qRT-PCR. […] The experiment was performed as above, but in this case FoxP3 induction in OT-I CD8 T-cells in the presence of OVA and either 10 ng/ml or 20 ng/ml TNFα was measured.
as §2

Molecule: C[C@H](NC(=O)Cc1cc(F)cc(F)c1)C(=O)N[C@H](C(=O)OC(C)(C)C)c1ccccc1 [DAPT, reference compound]
- effect of added agent on TcREG/FoxP3 induction by osteoclasts [1]: completely inhibited TcREG induction; also recorded: completely abrogated FoxP3 induction

Molecule: TNFα [reference compound]
- CD200 mRNA expression in mature osteoclasts (CD200): had no effect on CD200 expression; also recorded: not altered
- effect of added agent on TcREG/FoxP3 induction by osteoclasts [1]: reduced TcREG induction in a dose dependent manner; also recorded: greatly impaired
- DLL4 transcripts in mature osteoclasts after cytokine (DLL4): DLL4 expression was repressed; also recorded: significantly reduced

B1: IL-17A: recombinant murine IL-17A, pro-inflammatory cytokine (protein, UniProt Q62386 26-158, looked up)
Interleukin-17A: AAIIPQSSACPNTEAKDFLQNVKVNLKVFNSLGAKVSSRRPSDYLNRSTSPWTLHRNEDPDRYPSVIWEAQCRHQRCVNAEGKLDHHMNSVLIQQEILVLKREPESCPFTFRVEKMLVGVGCTCVASIVRQAA
- CD200 mRNA expression in mature osteoclasts (CD200): had no effect on CD200 expression
- CD200 mRNA expression in mature osteoclasts (CD200; listed as IL-17): not altered
- effect of added agent on TcREG/FoxP3 induction by osteoclasts [1]: significantly reduced
- effect of added agent on TcREG/FoxP3 induction by osteoclasts ([1]; listed as IL-17): greatly impaired
- DLL4 transcripts in mature osteoclasts after cytokine (DLL4): DLL4 expression was repressed
- DLL4 transcripts in mature osteoclasts after cytokine (DLL4; listed as IL-17): significantly reduced
